Assay results as given in patent publication US10899824B2 (Polichem S.A., priority 2016, dated 2021).

Key:
HSV-2 MS = assay: Post-HSV entry combination (synergy) assay, combination index; assay type: cell-based; details: 0.5 ug/mL
Method: Results obtained in the double curve assay were then analysed in silico in a ComboSyn analysis (CompuSyn for Drug Combinations and for General Dose-Effect Analysis by Ting-Chao Chou Memorial Sloan-Keltering Cancer Center New York, N.Y. and Nick Martin Massachustts Institute of Technology Cambridge, Mass.) to evaluate the potential synergies between IgGA and ACV, through the calculation of Combination Index (CI) and Dose Reduction Index (DRI).
The combination index (CI) according to Chou 2006 (23) indicates nearly additive activity in the range of 0.9-1.1, synergism under 0.9, strong synergism between 0.1 and 0.3 and very strong synergism under 0.1. Values of CI over 1.1 indicate antagonism. […]
The first step in IgGA/FOS combination activity evaluation has been the assessment of drug susceptibility for the two chosen HSV isolates already used for the Example 2. […] Combination index was calculated as in Example 2 to assess the synergism between IgGA and FOS. […]
The first step in IgGA/PCV combination activity evaluation has been the assessment of drug susceptibility for the two chosen HSV isolates (HSV-1 LV and HSV-2 MS). […] Combination index was calculated as in Example 2 to assess the synergism between IgGA and PCV. […]

HSV infected cells = assay: IIF binding assay of ScFv A; details: ScFv format
Method: ScFv gene of IgGA was successfully constructed and cloned into expression vector. ScFv format small scale production of IgGA was performed. The binding activity of ScFv A was evaluated by IIF assays on HSV infected cells.

HSV-1 HF strain = assay: Emergence of escape mutants under selective pressure; assay type: cell-based; details: selective pressure at 5 and 10 ug/mL; sequential infection rounds
Source text: In order to evaluate the presence of escape virus mutants generated under selective pressure of IgGA, HSV-1 infected VERO-E6 cells have been treated with increasing concentrations of Fab A. More in details, VERO cells have been cultured in T25 flasks in the experimental conditions extensively described in the previous reports (“virus propagation techniques”). Cell monolayers have been then infected by HSV-1 HF strain using 50 pfu/mL of cell free virus. […] […] After three days the infected cell media have been collected and centrifuged in order to use medium centrifuged supernatants for new cell infection rounds. […] Five sequential identical infection rounds have been performed in the presence of the two concentrations of IgGA and control IgG above described. […] In order to test the capability of virus cultured in the constant presence of IgGA to escape from IgGA inhibitory activity the cell free supernatants belonging to the final infections in the presence of IgGA have been incubated 1 h at 37° C. in the presence of high IgGA concentration. After pre-incubation the neutralization mix has been used to infect new VERO-E6 cells.
VERO-E6 monolayers were infected with HSV-1 HF strain using 50 pfu/mL of cell free virus. After virus complete adsorption, the infected cells were treated for three days with subinhibitory concentrations of IgGA, namely 0.2 mg/ml and 1 mg/ml. […]

HSV-1 [1] = assay: Cell-to-cell infection inhibition (plaque areas, post-adsorption); assay type: cell-based; details: Fabs 50 ug/mL, IgGs 25 ug/mL
Method: (§1) Post post-adsorption assays have been performed in order to evaluate the contribution of IgGA in inhibiting “cell-to-cell” infection by measuring the plaque areas resulting from infected cells treated or untreated with FabA or IgGA.
(§2) Fabs tested in post-adsorption cell-to-cell infection inhibition assays have also been preliminary used at a concentration of 50 and 200 ug/mL against HSV-1 and HSV-2 tested isolates respectively*.
(§3) IgGs tested in post-adsorption “cell-to-cell” infection inhibition assays have also been preliminary used at a concentration of 25 and 100 ug/mL against HSV-1 and HSV-2 tested isolates respectively*.

HSV-2 [2] = assay: as above; assay type: cell-based; details: Fabs 200 ug/mL, IgGs 100 ug/mL
Method: as §1, §2, §3

HSV-1 [3] = assay: Post adsorption inhibition of infection (plaque count); assay type: cell-based; details: IgG 25 ug/mL added 30 minutes after infection; 48 h; VERO E6
Method: (§4) Post-adsorption assays have been developed in order to speculate on possible administration of IgGA for the treatment of HSV infection, after the beginning of virus active replication within the host.
(§5) The first step of experimental approaches, involving post-HSV adsorption evaluation of FabA or IgGA, is the infection of VERO E6 cells with a standard amount of HSV not previously treated with the FabA or IgGA.
(§6) FabA or IgGA is added to the infected cells only after 30 minutes from virus infection. The infection is then carried out for 48 h in order to appreciate the HSV lysis plaques on VERO E6 cells. The experimental results have been evaluated by counting the plaques for infected cells receiving (post-HSV infection) FabA or IgGA compared to virus experimental positive control.
(§7) Fabs tested in post-adsorption assays have been used at a concentration of 50 and 200 ug/mL against HSV-1 and HSV-2 tested isolates respectively*.
(§8) IgGs tested in post-adsorption assays have been used at a concentration of 25 and 100 ug/mL against HSV-1 and HSV-2 tested isolates respectively*.

HSV-2 [4] = assay: as above; assay type: cell-based; details: IgG 100 ug/mL added 30 minutes after infection; 48 h; VERO E6
Method: as §4, §5, §6, §7, §8

HSV-2 tested isolates = assay: Neutralising activity against clinical isolates (pre-incubation with virus); assay type: cell-based; details: isolates with different susceptibility to Acyclovir; pre-incubation 1 h at 37° C.
Method: (§9) The neutralising activity of FabA or IgGA was evaluated by pre-incubating (1 h at 37° C.) the IgGA with the virus and adding the IgGA/virus-mixture to cell monolayer.

HSV-1 tested isolates = assay: as above; assay type: cell-based; details: isolates with different susceptibility to Acyclovir; pre-incubation 1 h at 37° C.
Method: as §9

Molecule: O=C(O)P(=O)(O)O [FOS, Foscarnet]
- activity of FOS alone against HSV-2 (HSV-2 MS): nearly ineffective

B1: ScFv A: single chain antibody from VL and VH of Fab A with (Gly3Ser)3 linker and His tag (protein)
scFv: ELTQSPGTLSSSPGHRATLSCKASAPLGSNHMAWYQQKPGQAPRLLIYGASTRATGVPARFTGSGSGTDFTLTISSLQPEDFATYYCQQANSFPRTFGQGTKVEIKGGGSGGGSGGGSLESGGGVVQPGRSLRLSCAASGFTFTTFAMHWVRQAPGKGLEWLAFISYDGSNKYYADSVKGRFTISRDNSKNTLYLQMNSLRAEDTSIYYCAREVWNYADYWGQGALVTVSS
modifications: left off: small tags and cut ends
notes: single chain antibody from VL and VH of Fab A with (Gly3Ser)3 linker and His tag
- IIF signal and binding level (HSV infected cells): high IIF background signal and low binding
- recognition of HSV infected cells in IIF (HSV infected cells): able to recognize HSV infected cells

B2: IgGA: IgG1 Fab Ex2 converted into a full IgG1, identified as IgGA (antibody, V domains shown)
VH: LESGGGVVQPGRSLRLSCAASGFTFTTFAMHWVRQAPGKGLEWLAFISYDGSNKYYADSVKGRFTISRDNSKNTLYLQMNSLRAEDTSIYYCAREVWNYADYWGQGALVTVSS
VL: ELTQSPGTLSSSPGHRATLSCKASAPLGSNHMAWYQQKPGQAPRLLIYGASTRATGVPARFTGSGSGTDFTLTISSLQPEDFATYYCQQANSFPRTFGQGTKVEIK
- generation of escape mutants under selective pressure (HSV-1 HF strain): no “escape mutants” have been generated
- generation of escape mutants under selective pressure (Example 1) (HSV-1 HF strain): no “escape mutants” were generated
- inhibition of plaque areas (cell-to-cell infection), HSV-1 (HSV-1 [1]): even higher than Fab A inhibition activity
- inhibition of plaque areas (cell-to-cell infection), HSV-2 (HSV-2 [2]): even higher than Fab A inhibition activity
- post-adsorption inhibition of new infection events and infectious foci (plaques), HSV-1 (HSV-1 [3]): strongly inhibits
- post-adsorption inhibition of new infection events and infectious foci (plaques), HSV-2 (HSV-2 [4]): strongly inhibits
- neutralisation of HSV-2 isolates (HSV-2 tested isolates): potently neutralises
- neutralisation of HSV-1 isolates (HSV-1 tested isolates): potently neutralises
